The record followed here is publication PMC1919378 (BMC Structural Biology, 2007).

The target in one data set is T1, Gnd1 (6PGDH/Gnd1) (Saccharomyces cerevisiae, UniProt P38720).
T1 construct: full length, 489 residues; pET28a-derived vector, E. coli Rosetta (DE3); homodimer; residues 1-476 seen in crystal
T1 sequence (P38720 1-489): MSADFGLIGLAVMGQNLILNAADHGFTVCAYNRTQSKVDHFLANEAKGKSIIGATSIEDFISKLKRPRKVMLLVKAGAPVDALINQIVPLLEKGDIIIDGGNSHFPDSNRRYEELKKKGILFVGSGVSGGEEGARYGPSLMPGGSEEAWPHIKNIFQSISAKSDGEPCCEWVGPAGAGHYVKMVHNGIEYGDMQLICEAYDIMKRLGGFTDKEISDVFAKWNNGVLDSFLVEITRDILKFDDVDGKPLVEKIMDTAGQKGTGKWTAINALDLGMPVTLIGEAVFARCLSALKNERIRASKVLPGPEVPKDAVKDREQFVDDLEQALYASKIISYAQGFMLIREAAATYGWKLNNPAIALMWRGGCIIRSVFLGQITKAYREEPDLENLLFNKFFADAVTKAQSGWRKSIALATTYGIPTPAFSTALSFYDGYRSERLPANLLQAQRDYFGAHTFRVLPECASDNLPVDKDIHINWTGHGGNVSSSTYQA
The data set is described as follows: X-ray crystal structure, […] Å. The note with it: crystallised from 1.28 M tri-sodium citrate pH 6.5; two citrates per monomer in the 6-phosphogluconate site, contacts from both chains. In kind it is binding.

Data set [1] concerns the molecule itself. The data set can be described thus: crystal structure; hanging-drop vapour diffusion at 15°C, 1.28 M tri-sodium citrate pH 6.5; 2.37 Å, molecular replacement; two citrate molecules bound to each monomer.
Substrate in the data set “purified protein”: NC(=O)c1ccc[n+]([C@@H]2O[C@H](COP(=O)(O)OP(=O)(O)OC[C@H]3O[C@@H](n4cnc5c(N)ncnc54)[C@H](OP(=O)(O)O)[C@@H]3O)[C@@H](O)[C@H]2O)c1
The data set is described as follows: purified protein. As to conditions: co-substrate 6-phosphogluconate (0.1-0.5 mM, varied), Gly-Gly 50 mM pH 7.5, MgCl2 10 mM, 28°C, ionic strength 0.03.

Data set [2] concerns the molecule itself. The data set can be described thus: SEC; dimer found 'through purification and crystallization'; purification by Ni2+ chromatography and gel filtration on Superdex 200 (20 mM Tris-HCl pH 8.0, 200 mM NaCl, 20 mM β-mercaptoethanol); 'homodimer in solution'. For orientation: Size exclusion chromatography separates by hydrodynamic size, large species first.

For orientation: stoichiometry N means the number of molecules, sites or subunits per partner or assembly. In general, Km refers to the concentration of substrate that gives half-maximal velocity.

In the case of `O=C(O)CC(O)(CC(=O)O)C(=O)O` [citrate], at Gnd1 (6PGDH/Gnd1), the “X-ray crystal structure, 2.37 Å” value is “two citrate molecules were bound to the active site of each Gnd1 monomer”.

B1: Saccharomyces cerevisiae 6-phosphogluconate dehydrogenase Gnd1 (enzyme, S. cerevisiae, UniProt P38720 1-489, looked up)
chain: T1 sequence (P38720 1-489)
notes: 6-phosphogluconate dehydrogenase Gnd1, S. cerevisiae strain S288C, ORF YHR183W/GND1, 489 residues; residues 1-476 are seen in the crystal structure; The asymmetric unit holds one monomer (final model 1-476 for one monomer); the dimer is described as the biological unit; also called 6PGDH/Gnd1; 6PGDH
In the case of B1, the “stoichiometry N” value in data set [1] is 2. Also, the Km in “purified protein” is 35 ± 6 µM.

B2: Gnd1ΔC53 (domain or fragment, S. cerevisiae, UniProt P38720 1-436, looked up)
chain: MSADFGLIGLAVMGQNLILNAADHGFTVCAYNRTQSKVDHFLANEAKGKSIIGATSIEDFISKLKRPRKVMLLVKAGAPVDALINQIVPLLEKGDIIIDGGNSHFPDSNRRYEELKKKGILFVGSGVSGGEEGARYGPSLMPGGSEEAWPHIKNIFQSISAKSDGEPCCEWVGPAGAGHYVKMVHNGIEYGDMQLICEAYDIMKRLGGFTDKEISDVFAKWNNGVLDSFLVEITRDILKFDDVDGKPLVEKIMDTAGQKGTGKWTAINALDLGMPVTLIGEAVFARCLSALKNERIRASKVLPGPEVPKDAVKDREQFVDDLEQALYASKIISYAQGFMLIREAAATYGWKLNNPAIALMWRGGCIIRSVFLGQITKAYREEPDLENLLFNKFFADAVTKAQSGWRKSIALATTYGIPTPAFSTALSFYDGYRSER
notes: 6-phosphogluconate dehydrogenase Gnd1, S. cerevisiae, ORF YHR183W/GND1, residues 1-436 of 489 (C-terminal 53 residues, the entire C-terminal tail, deleted); Cloned into the pET28a-derived vector and purified as the full-length protein; also called Gnd1 without the C-terminal 53 residues; source: E. coli Rossetta (DE3), purified (Ni2+ chromatography, Superdex 200 gel filtration)
B2: the “stoichiometry N” value in data set [2] was 2.

B3: Gnd1ΔC35 (domain or fragment, S. cerevisiae, UniProt P38720 1-454, looked up)
chain: MSADFGLIGLAVMGQNLILNAADHGFTVCAYNRTQSKVDHFLANEAKGKSIIGATSIEDFISKLKRPRKVMLLVKAGAPVDALINQIVPLLEKGDIIIDGGNSHFPDSNRRYEELKKKGILFVGSGVSGGEEGARYGPSLMPGGSEEAWPHIKNIFQSISAKSDGEPCCEWVGPAGAGHYVKMVHNGIEYGDMQLICEAYDIMKRLGGFTDKEISDVFAKWNNGVLDSFLVEITRDILKFDDVDGKPLVEKIMDTAGQKGTGKWTAINALDLGMPVTLIGEAVFARCLSALKNERIRASKVLPGPEVPKDAVKDREQFVDDLEQALYASKIISYAQGFMLIREAAATYGWKLNNPAIALMWRGGCIIRSVFLGQITKAYREEPDLENLLFNKFFADAVTKAQSGWRKSIALATTYGIPTPAFSTALSFYDGYRSERLPANLLQAQRDYFGAHTF
notes: 6-phosphogluconate dehydrogenase Gnd1, S. cerevisiae, ORF YHR183W/GND1, residues 1-454 of 489 (C-terminal 35 residues deleted); Cloned into the pET28a-derived vector and purified as the full-length protein; also called Gnd1 without the C-terminal 35 residues; source: E. coli Rossetta (DE3), purified (Ni2+ chromatography, Superdex 200 gel filtration)
As to B3, the “stoichiometry N” value in data set [2] is 2.

B4: Gnd1ΔC39 (domain or fragment, S. cerevisiae, UniProt P38720 1-450, looked up)
chain: MSADFGLIGLAVMGQNLILNAADHGFTVCAYNRTQSKVDHFLANEAKGKSIIGATSIEDFISKLKRPRKVMLLVKAGAPVDALINQIVPLLEKGDIIIDGGNSHFPDSNRRYEELKKKGILFVGSGVSGGEEGARYGPSLMPGGSEEAWPHIKNIFQSISAKSDGEPCCEWVGPAGAGHYVKMVHNGIEYGDMQLICEAYDIMKRLGGFTDKEISDVFAKWNNGVLDSFLVEITRDILKFDDVDGKPLVEKIMDTAGQKGTGKWTAINALDLGMPVTLIGEAVFARCLSALKNERIRASKVLPGPEVPKDAVKDREQFVDDLEQALYASKIISYAQGFMLIREAAATYGWKLNNPAIALMWRGGCIIRSVFLGQITKAYREEPDLENLLFNKFFADAVTKAQSGWRKSIALATTYGIPTPAFSTALSFYDGYRSERLPANLLQAQRDYFG
notes: 6-phosphogluconate dehydrogenase Gnd1, S. cerevisiae, ORF YHR183W/GND1, residues 1-450 of 489 (C-terminal 39 residues deleted); Cloned into the pET28a-derived vector and purified as the full-length protein; also called Gnd1 without the C-terminal 39 residues; source: E. coli Rossetta (DE3), purified (Ni2+ chromatography, Superdex 200 gel filtration)
As for B4, the “stoichiometry N” value in data set [2] came to 2.
